This note sets out measurements from the nanobody polyreactivity screen of Harvey et al. (2022).

A short description of the data set: yeast display, Sf9 membrane polyspecificity reagent, FACS + sequencing; frameworks hold sequencing errors. An outline of the steps: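 Synthetic nanobody libraries on Saccharomyces cerevisiae BJ5465 were galactose-induced for 36–48 hours, stained 1 hour at 4 °C with 10% biotinylated, detergent-solubilized Sf9 membrane reagent and enriched on streptavidin microbeads. FACS then separated cells into low and high (top ~1%) gates by anti-HA (expression) and streptavidin (reagent binding) fluorescence. Genes were colony-PCR amplified, MiSeq 2 × 250 sequenced and CDR-length filtered. A clone's polyreactivity label is that of its gate of origin.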
On to “QVQLVESGGGLVQAGGSLRLSFAASGRIFAYYVMGWYRQAPGKARELVAAITGSGGSTYYADSVKGRFTISRDNAKNTVYLQMNSLKPEDTAVYYCNADFVWRGDYWGQGTQVTVSS”, for which the “polyreactivity (PSR sort gate)” value is on record as “low polyreactivity”.
The result for “QVQLVESGGGLVQAGGSLRLSCAASGRTFRYYAMGWYRQAPGKERELVAAITSSGDSTYYADSVKGRFTISRDNAKNTVYLQMNSLKPEDTAVYYCAAGQPLFYDAEYGYWGQGTQVNVSS” reads “low polyreactivity”; that for “QVQLVESGGGLVQAGGSLRLSWAASGRTFNRYVMGWYRQAPGKERELVAAISRSGTSTYYADSVKGRFTISRDNAKNTVYLQMNSLKPEDTAVYYCAREYQTVSFKNYYWGQGTQVTVSS”, “high polyreactivity”.
With “QVQLVESGGGLVQAGGSLRLSCAASGIFTYTMGWYRQAPGKERELVAAITNGSTYYADSVKGRFTISRDNAKNTVYLQMNSLKPEDTAVYYCAADRSSAYRWRSAGYYKYDYWGQGTQVTVSS” the entry was “low polyreactivity”; with “QVQLEESGGGLVQAGGSLRLSCAASGYIFRFYTMGWYRQAPGKERELVAAISSGGSTNYADSVKGRFTISRANAKNTVYLQMNSLKPEDTAVYYCAARFYSRYYWGQGTQVTVSS”, “low polyreactivity”.
The result for “QVQLVESGGGLDQAGGSLRLSCAASGLIFRRYAMGWYRQAPGKERELVAAISRSGGSTYYADSVKGRFTISRDNAKNTVYLQMNSLKPEDTAVYYCAARTRSDNSYHGGEYWGQGTQVTVSS” reads “high polyreactivity”; that for “QDQLVESGGGLVQAGGSLRLRCAASRFYTMGWYRQAPGKERELVAAISWSGGDTYYADSVKGRFTISRDNAKNTVYLQMNSLKPEDTAVYYCAKKTIGSYVHEPYYYWGQGTQVTVSS”, “low polyreactivity”.
Take “QVQLVESGGGLVQEGGSLRLSCAASGRTFWAYAMGWYRQAPGKERELVAAITTSGGSTNYADSVKGRFTISRDNAKNTVYLQMNSLKPEDTADYYCNADPTYHVVNGVAYWGQGTQVTVSS”: the “polyreactivity (PSR sort gate)” value is recorded as “low polyreactivity”.
The result for “QVQLVESGGGLVQAGGSLRLSCAASGGTFRGYVMGWYIQAPGKERELVAAISYSGGTTYYADSVKGRFTISRDNAKNTVYLQMNSLKPEDTAVYYCNKGYRRYEDGATPGYGYWGQGTQVTVSS” reads “high polyreactivity”.
Regarding “QVQLVESGGGLFQAGGSLRLSCAASGRTFGKNAMGWYRQAPGKEREFVAAITSRGGSTYYADSVKGRFTISRDNAKNTVYLQMNSLNPEDTGVYYCNREYKRPSQRNEHFYCGQGTQVTVSS”, the “polyreactivity (PSR sort gate)” value is “low polyreactivity”.
The result for “QVQLLESGGGLVQAGGILRLSCAASGSTFYPYAMGWSRQAPGKDRELVAAITGTGGSTYYADSVKGRFRISLDNAKNTVDLQMNSLKPEDPAVYYCATRRRYYYSGYNYWGQGTQVTVSS” reads “high polyreactivity”; that for “QVQLVESGGGIVQAGGSLRLSCAASGITSYFNAMGWYRQAPGKERELVAITWNGGSTYYADSVKGRFTISRDNAMNTVYLQMNSLKPEDTAVYYCAARYRRYNRKYDYWGQGTQVTVSS”, “high polyreactivity”.
The result for “QVQLVESGGGLVQAGASLRLSCAASGLNFKRNAMGWYRQAPGKERELVAAIRYSTDSTNYADSVKGRFTISRDNAKNTVFLQMNSLKPEDTAVYYCAKDKQDYEYWGQGTLVTVSS” reads “low polyreactivity”; that for “QVQLVESGGGLVQAGGSLRLSCAASGFISDYYAMGWDRQAPGKERELVADISSGGSTYYADSVKGRCTISRDNAKNTVYLQMNSLKPEDTAVYYCNAGDYFVRFVYYWDDERYDYWGQGTQVTVSS”, “low polyreactivity”.
With “QVELVESGGGLVQAGGSLRLSCAASGFIFTYYAMGWYSQAPWKERELVATISSGGGSTYYADSVKGRFTISRDNAKNTVYLQMYSLNPEDTAVYYCAASRRITGIRYINRYAYWGQGTQVTVSS” the entry was “high polyreactivity”.
In the case of “QVQLVETGGGLVQAGGSLRLSCAASGRTYRFNAMGWYRQAPGKERELVASINSGVRTYYADSVKGRFTISRDNAKNTVYLQMNSLKPEDSAVYYCAARYRVRYYERDYWGQGTQVTVSS”, the “polyreactivity (PSR sort gate)” value is listed as “high polyreactivity”.
